In the supplement of paper PMC7877785:
± gives the uncertainty stated by the source.

Assay: self-splicing fitness, log relative to wild type (ln ratio); higher = more splicing; Tetrahymena group I intron in knt gene, E. coli kanamycin selection, DiMSum; sequences stand for … in CUCUCU…GGAGGGAAAAGUUAUCAGGCAUGCACCUGGUAGCUAGUCUUUAAACCAAUAGAUUGCAUCGGUUUAAAAGGCAAGACCGUCAAAUUGCGGGAAAGGGGUCAACAGCCGUUCAGUACCAAGUCUCAGGGGAAACUUUGAGAUGGCCUUGCAAAGGGUAUGGUAAUAAGCUGACGGACAUGGUCCUAACCACGCAGCCAAGUCCUAAGUCAACAGAUCUUCUGUUGAUAUGGAUGCAGUUCACAGACUAAAUGUCGGUCGGGGAAGAUGUAUUCUUCUCAUAAGAUAUAGUCGGACCUCUCCUUAAUGGGAGCUAGCGGAUGAAGUGAUGCAACACUGGAGCCGCUGGGAACUAAUUUGUAUGCGAAAGUAUAUUGAUUAGUUUUGGAGUACUCGUGGUCG
In short: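 Library with all eight P1ex-region intron nucleotides randomised, intron inside the knt kanamycin-resistance gene on pET-22b(+), in E. coli BL21(DE3). Cells grew overnight at 37°C or 30°C on LB agar with or without 25 μg/mL kanamycin (plus 100 μg/mL carbenicillin, 50 μM IPTG, 0.2% rhamnose), in six replicate transformations. Pooled colonies were amplicon-sequenced on Illumina HiSeq 2500. DiMSum fitness is the error-weighted combination of wild-type-normalised replicate fold changes, kanamycin versus none.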

| Sequence | self-splicing fitness (ln) (30 °C) | self-splicing fitness (ln) (37 °C) |
| --- | --- | --- |
| UGCAAGCAAUAUUACGACAG | -0.739 ± 0.066 | -0.13 ± 0.092 |
| UGCAAGCAAUAUUACGACCC | -2.05 ± 0.49 | 0.223 ± 0.43 |
| UGCAAGCAAUAUUACGAGCC | -1.39 ± 0.11 | -1.52 ± 0.14 |
| UGCAAGCAAUAUUACGAUCG | -0.2 ± 0.07 | 0.647 ± 0.093 |
| UGCAAGCAAUAUUACGAUUU | -1.16 ± 0.09 | -1.05 ± 0.1 |
| UGCAAGCAAUAUUACGCAAG | -2.59 ± 0.17 | -3.02 ± 0.32 |
| UGCAAGCAAUAUUACGCACU | -2.92 ± 0.13 | -1.28 ± 0.1 |
| UGCAAGCAAUAUUACGCAUU | -4.37 ± 0.27 | -3.61 ± 0.26 |
| UGCAAGCAAUAUUACGCGGA | -2.23 ± 0.12 | -0.795 ± 0.12 |
| UGCAAGCAAUAUUACGCUUA | -1.2 ± 0.092 | -0.639 ± 0.092 |
| UGCAAGCAAUAUUACGGAAA | -1.82 ± 0.17 | -2.45 ± 0.22 |
| UGCAAGCAAUAUUACGGCAU | -3.05 ± 0.29 | -2.1 ± 0.19 |
| UGCAAGCAAUAUUACGGCCG | -0.266 ± 0.075 | 0.134 ± 0.099 |
| UGCAAGCAAUAUUACGGCGA | -0.0647 ± 0.094 | -0.21 ± 0.11 |
| UGCAAGCAAUAUUACGGGGA | -3.21 ± 0.33 | -1.32 ± 0.15 |
| UGCAAGCAAUAUUACGGGGU | -3.13 ± 0.15 | -2.75 ± 0.14 |
| UGCAAGCAAUAUUACGGGUA | -0.497 ± 0.084 | 0.0384 ± 0.095 |
| UGCAAGCAAUAUUACGGUAC | -4.35 ± 0.39 | -2.38 ± 0.21 |
| UGCAAGCAAUAUUACGGUCA | 0.0812 ± 0.064 | -0.169 ± 0.065 |
| UGCAAGCAAUAUUACGUAGA | -1.35 ± 0.072 | -0.944 ± 0.1 |
| UGCAAGCAAUAUUACGUCGC | -2.86 ± 0.43 | -2.36 ± 0.49 |
| UGCAAGCAAUAUUACGUCGG | -2.03 ± 0.086 | -0.943 ± 0.1 |
| UGCAAGCAAUAUUACGUCUG | -1.34 ± 0.08 | -0.432 ± 0.1 |
| UGCAAGCAAUAUUACGUGAU | -3.33 ± 0.082 | -2.13 ± 0.093 |
| UGCAAGCAAUAUUACGUGCG | -2.86 ± 0.18 | -1.94 ± 0.18 |
| UGCAAGCAAUAUUACGUGUG | -2.69 ± 0.098 | -2.81 ± 0.14 |

| Sequence | self-splicing fitness (ln) (30 °C) | self-splicing fitness (ln) (37 °C) |
| --- | --- | --- |
| UGCAAGCAAUAUUACGUUAC | -2.91 ± 0.27 | -2.41 ± 0.24 |
| UGCCAGCAAUAUUACGAAGG | -3.59 ± 0.27 | -2.6 ± 0.3 |
| UGCCAGCAAUAUUACGAUAC | -3.95 ± 0.25 | -2.29 ± 0.25 |
| UGCCAGCAAUAUUACGAUUU | -4.1 ± 0.23 | -1.54 ± 0.14 |
| UGCCAGCAAUAUUACGCCAU | -3.3 ± 0.28 | -2.48 ± 0.26 |
| UGCCAGCAAUAUUACGCCCC | -2.29 ± 0.26 | -1.44 ± 0.29 |
| UGCCAGCAAUAUUACGCCUU | -1.93 ± 0.13 | -2.29 ± 0.18 |
| UGCCAGCAAUAUUACGGAAC | -3.49 ± 0.34 |  |
| UGCCAGCAAUAUUACGGCCG | -0.659 ± 0.073 | -0.389 ± 0.092 |
| UGCCAGCAAUAUUACGGUGU | -2.53 ± 0.11 | -2.7 ± 0.19 |
| UGCCAGCAAUAUUACGGUUG | -1.94 ± 0.096 | -0.692 ± 0.11 |
| UGCCAGCAAUAUUACGUCCG | -0.88 ± 0.073 | 0.0267 ± 0.11 |
| UGCCAGCAAUAUUACGUGCG | -1.34 ± 0.077 | -1.13 ± 0.091 |
| UGCCAGCAAUAUUACGUGGG | -3.88 ± 0.13 | -2.74 ± 0.14 |
| UGCCAGCAAUAUUACGUUGU | -3.21 ± 0.12 | -2.86 ± 0.18 |
| UGCCAGCAAUAUUACGUUUC | -4.47 ± 0.28 | -1.17 ± 0.16 |
| UGCGAGCAAUAUUACGAGGG | -2.1 ± 0.13 | -2.3 ± 0.17 |
| UGCGAGCAAUAUUACGCACC | -3.32 ± 0.31 | -2.72 ± 0.42 |
| UGCGAGCAAUAUUACGCGAG | -3.16 ± 0.23 | -1.79 ± 0.25 |
| UGCGAGCAAUAUUACGCGAU | -2.39 ± 0.42 |  |
| UGCGAGCAAUAUUACGCGCC | -2.45 ± 0.26 | -1.29 ± 0.27 |
| UGCGAGCAAUAUUACGCGGU | -2.46 ± 0.17 | -2.43 ± 0.19 |
| UGCGAGCAAUAUUACGCUGA | -2.35 ± 0.27 | -2.28 ± 0.27 |
| UGCGAGCAAUAUUACGGCAA | -2.3 ± 0.4 | -0.0535 ± 0.27 |
| UGCGAGCAAUAUUACGGGUA | -1.19 ± 0.18 | -0.698 ± 0.21 |
| UGCGAGCAAUAUUACGGUGA | -2.28 ± 0.18 | -1.49 ± 0.16 |

| Sequence | self-splicing fitness (ln) (30 °C) | self-splicing fitness (ln) (37 °C) |
| --- | --- | --- |
| UGCGAGCAAUAUUACGGUGU | -4.19 ± 0.23 | -3.16 ± 0.4 |
| UGCGAGCAAUAUUACGUCCA | -0.227 ± 0.25 | -0.499 ± 0.29 |
| UGCGAGCAAUAUUACGUGAG | -4.57 ± 0.36 | -2.63 ± 0.18 |
| UGCGAGCAAUAUUACGUUGG |  | -1.27 ± 0.26 |
| UGCUAGCAAUAUUACGAAAG | -2.06 ± 0.21 | -0.114 ± 0.19 |
| UGCUAGCAAUAUUACGAACA | -0.29 ± 0.12 | 0.199 ± 0.13 |
| UGCUAGCAAUAUUACGACAA | -1.15 ± 0.13 | -0.207 ± 0.14 |
| UGCUAGCAAUAUUACGACAU | -2.027 ± 0.016 | -1.05 ± 0.034 |
| UGCUAGCAAUAUUACGACCA | 0.141 ± 0.17 | 0.148 ± 0.27 |
| UGCUAGCAAUAUUACGACUC | -2.59 ± 0.27 | -0.141 ± 0.2 |
| UGCUAGCAAUAUUACGAGGC | -2.55 ± 0.19 | -1.89 ± 0.34 |
| UGCUAGCAAUAUUACGCAGC | -4.35 ± 0.36 | -2.1 ± 0.28 |
| UGCUAGCAAUAUUACGCCGA | -2.48 ± 0.25 | -1 ± 0.19 |
| UGCUAGCAAUAUUACGCCUU | -2.68 ± 0.23 | 0.255 ± 0.17 |
| UGCUAGCAAUAUUACGCGUC | -3.06 ± 0.27 | -2.23 ± 0.27 |
| UGCUAGCAAUAUUACGCUCU | -1.63 ± 0.13 | -0.156 ± 0.15 |
| UGCUAGCAAUAUUACGCUGU | -3.58 ± 0.22 | -2.38 ± 0.27 |
| UGCUAGCAAUAUUACGCUUU | -2.16 ± 0.14 | -2.22 ± 0.19 |
| UGCUAGCAAUAUUACGGAGC |  | -1.42 ± 0.41 |
| UGCUAGCAAUAUUACGGAGG | -2.23 ± 0.14 | -1.13 ± 0.13 |
| UGCUAGCAAUAUUACGGCGC | -3.41 ± 0.37 | 1.38 ± 0.48 |
| UGCUAGCAAUAUUACGGGGG | -0.837 ± 0.13 | -2.32 ± 0.32 |
| UGCUAGCAAUAUUACGGGUA | -0.992 ± 0.14 | -0.151 ± 0.12 |
| UGCUAGCAAUAUUACGGGUU | -2.39 ± 0.14 | -1.33 ± 0.14 |
| UGCUAGCAAUAUUACGGUUG | -0.971 ± 0.06 | -0.318 ± 0.082 |
